# Reference: the supplement of paper PMC11246515
# ± gives the standard deviation of the averaged measurements.
# Assay: total protein half-life in vivo (active degradation + dilution); higher = more stable protein
# [1] = E. coli NCM3722 delta-clpP delta-lon delta-hslV, growth: N-lim chemostat, doubling time 6 h
# [2] = E. coli NCM3722 delta-clpP, growth: N-lim chemostat, doubling time 6 h
# [3] = E. coli NCM3722 delta-smpB, growth: N-lim chemostat, doubling time 6 h
# [4] = wild type E. coli NCM3722, growth: C-lim chemostat, doubling time 3 h
# [5] = wild type E. coli NCM3722, growth: C-lim chemostat, doubling time 6 h
# [6] = wild type E. coli NCM3722, growth: C-lim chemostat, doubling time 12 h
# [7] = wild type E. coli NCM3722, growth: N-lim chemostat, doubling time 6 h
# [8] = wild type E. coli NCM3722, growth: N-lim chemostat, doubling time 12 h
# [9] = E. coli NCM3722 delta-hslV, growth: N-lim chemostat, doubling time 6 h
# [10] = E. coli NCM3722 delta-lon, growth: N-lim chemostat, doubling time 6 h
# [11] = wild type E. coli NCM3722, growth: P-lim chemostat, doubling time 6 h
# [12] = wild type E. coli NCM3722, growth: P-lim chemostat, doubling time 12 h
Sequence,total protein half-life in vivo [1] [h],total protein half-life in vivo [2] [h],total protein half-life in vivo [3] [h],total protein half-life in vivo [4] [h],total protein half-life in vivo [5] [h],total protein half-life in vivo [6] [h],total protein half-life in vivo [7] [h],total protein half-life in vivo [8] [h],total protein half-life in vivo [9] [h],total protein half-life in vivo [10] [h],total protein half-life in vivo [11] [h],total protein half-life in vivo [12] [h]
MKAARQQAIVDLLLNHTSLTTEALSEQLKVSKETIRRDLNELQTQGKILRNHGRAKYIHRQNQDSGDPFHIRLKSHYAHKADIAREALAWIEEGMVIALDASSTCWYLARQLPDINIQVFTNSHPICHELGKRERIQLISSGGTLERKYGCYVNPSLISQLKSLEIDLFIFSCEGIDSSGALWDSNAINADYKSMLLKRAAQSLLLIDKSKFNRSGEARIGHLDEVTHIISDERQVATSLVTA [P0ACK8],4.82 ± 0.058,2.74 ± 0.14,0.618,0.695 ± 0.079,1.09,1.36 ± 0.31,1.3,0.218,–,–,–,–
MLKKFRGMFSNDLSIDLGTANTLIYVKGQGIVLNEPSVVAIRQDRAGSPKSVAAVGHDAKQMLGRTPGNIAAIRPMKDGVIADFFVTEKMLQHFIKQVHSNSFMRPSPRVLVCVPVGATQVERRAIRESAQGAGAREVFLIEEPMAAAIGAGLPVSEATGSMVVDIGGGTTEVAVISLNGVVYSSSVRIGGDRFDEAIINYVRRNYGSLIGEATAERIKHEIGSAYPGDEVREIEVRGRNLAEGVPRGFTLNSNEILEALQEPLTGIVSAVMVALEQCPPELASDISERGMVLTGGGALLRNLDRLLMEETGIPVVVAEDPLTCVARGGGKALEMIDMHGGDLFSEE [P0A9X4],–,–,5.69 ± 0.23,3.039 ± 0.01,6.72 ± 0.37,12.1 ± 0.77,6.13 ± 0.39,12.1 ± 0.8,6.55 ± 0.53,6.29 ± 0.99,5.94 ± 0.36,12.4 ± 0.42
MKILVIGPSWVGDMMMSQSLYRTLQARYPQAIIDVMAPAWCRPLLSRMPEVNEAIPMPLGHGALEIGERRKLGHSLREKRYDRAYVLPNSFKSALVPFFAGIPHRTGWRGEMRYGLLNDVRVLDKEAWPLMVERYIALAYDKGIMRTAQDLPQPLLWPQLQVSEGEKSYTCNQFSLSSERPMIGFCPGAEFGPAKRWPHYHYAELAKQLIDEGYQVVLFGSAKDHEAGNEILAALNTEQQAWCRNLAGETQLDQAVILIAACKAIVTNDSGLMHVAAALNRPLVALYGPSSPDFTPPLSHKARVIRLITGYHKVRKGDAAEGYHQSLIDITPQRVLEELNALLLQEEA,6.06 ± 0.088,6.69 ± 0.98,6.11 ± 0.48,3.24 ± 0.14,5.58 ± 0.14,11.7 ± 2.8,6.4 ± 0.97,11.1 ± 1.8,5.71 ± 0.23,5.22 ± 0.11,6.54 ± 0.24,11.7 ± 1.7
MKQLWFAMSLVTGSLLFSANASATPASGALLQQMNLASQSLNYELSFISINKQGVESLRYRHARLDNRPLAQLLQMDGPRREVVQRGNEISYFEPGLEPFTLNGDYIVDSLPSLIYTDFKRLSPYYDFISVGRTRIADRLCEVIRVVARDGTRYSYIVWMDTESKLPMRVDLLDRDGETLEQFRVIAFNVNQDISSSMQTLAKANLPPLLSVPVGEKAKFSWTPTWLPQGFSEVSSSRRPLPTMDNMPIESRLYSDGLFSFSVNVNRATPSSTDQMLRTGRRTVSTSVRDNAEITIVGELPPQTAKRIAENIKFGAAQ [P0AFX9],–,6.16 ± 0.25,5.8 ± 0.49,2.96 ± 0.22,6.16 ± 0.61,10.4 ± 0.19,6.73 ± 0.14,13.2 ± 1.5,6.13 ± 0.069,5.896 ± 0.045,5.88 ± 0.69,12 ± 0.74
MRYPVDVYTGKIQAYPEGKPSAIAKIQVDGELMLTELGLEGDEQAEKKVHGGPDRALCHYPREHYLYWAREFPEQAELFVAPAFGENLSTDGLTESNVYMGDIFRWGEALIQVSQPRSPCYKLNYHFDISDIAQLMQNTGKVGWLYSVIAPGKVSADAPLELVSRVSDVTVQEAAAIAWHMPFDDDQYHRLLSAAGLSKSWTRTMQKRRLSGKIEDFSRRLWGK,4.688 ± 0.014,4.89 ± 0.61,4.46 ± 0.23,3.04 ± 0.29,6.38 ± 1.3,9.06 ± 0.23,4.7 ± 0.19,7.96 ± 1.1,4.614 ± 0.023,5.77 ± 0.072,5.64 ± 0.12,12 ± 0.28
